Measured values reported in patent publication US20240100162A1 (published 2024).

Columns and labels:
[1] = target: T1, MAGE-B2 peptide, S9I peptide on HLA-A*02:01 (human); assay: killing
T1 peptide: GVYDGEEHIV

[2] = target: T2, MAGE-B2 peptide, S9E peptide on HLA-A*02:01 (human); assay: killing
T2 peptide: GVYDGEEHEV

[3] = target: T3, MAGE-B2 peptide, V10L peptide on HLA-A*02:01 (human); assay: killing
T3 peptide: GVYDGEEHSL

[4] = target: T4, MAGE-A4 peptide on HLA-A*02:01 (human); assay: killing
T4 peptide: GVYDGREHTV

[5] = target: T5, MAGE-B2 peptide, E7C peptide on HLA-A*02:01 (human); assay: killing
T5 peptide: GVYDGECHSV

[6] = target: T6, MAGE-B2 peptide, Y3F peptide on HLA-A*02:01 (human); assay: killing
T6 peptide: GVFDGEEHSV

[7] = target: T7, MAGE-B2 peptide, H8N peptide on HLA-A*02:01 (human); assay: killing
T7 peptide: GVYDGEENSV

[8] = target: T8, MAGE-B2 peptide, H8Y peptide on HLA-A*02:01 (human); assay: killing
T8 peptide: GVYDGEEYSV

[9] = target: T9, MAGE-B2 peptide, E7P peptide on HLA-A*02:01 (human); assay: killing
T9 peptide: GVYDGEPHSV

[10] = target: T10, MAGE-B2 peptide, S9T peptide on HLA-A*02:01 (human); assay: killing
T10 peptide: GVYDGEEHTV

[11] = target: T11, MAGE-B2 peptide, D4N peptide on HLA-A*02:01 (human); assay: killing
T11 peptide: GVYNGEEHSV

[12] = target: T12, MAGE-B2 peptide, V2L peptide on HLA-A*02:01 (human); assay: killing
T12 peptide: GLYDGEEHSV

[13] = target: T13, MAGE-B2 peptide, S9D peptide on HLA-A*02:01 (human); assay: killing
T13 peptide: GVYDGEEHDV

[14] = target: T14, MAGE-B2 peptide, E7Y peptide on HLA-A*02:01 (human); assay: killing
T14 peptide: GVYDGEYHSV

[15] = target: T15, MAGE-B2 peptide, S9A peptide on HLA-A*02:01 (human); assay: killing
T15 peptide: GVYDGEEHAV

[16] = target: T16, MAGE-B2 peptide, E7N peptide on HLA-A*02:01 (human); assay: killing
T16 peptide: GVYDGENHSV

[17] = target: T17, MAGE-B2 peptide, S9G peptide on HLA-A*02:01 (human); assay: killing
T17 peptide: GVYDGEEHGV

[18] = target: T18, MAGE-B2 peptide, V2T peptide on HLA-A*02:01 (human); assay: killing
T18 peptide: GTYDGEEHSV

[19] = target: T19, MAGE-B2 peptide, V2M peptide on HLA-A*02:01 (human); assay: killing
T19 peptide: GMYDGEEHSV

[20] = target: T20, MAGE-B2 peptide, S9V peptide on HLA-A*02:01 (human); assay: killing
T20 peptide: GVYDGEEHVV

[21] = target: T21, MAGE-B2 peptide, V10A peptide on HLA-A*02:01 (human); assay: killing
T21 peptide: GVYDGEEHSA

[22] = target: T22, MAGE-B2 peptide, D4C peptide on HLA-A*02:01 (human); assay: killing
T22 peptide: GVYCGEEHSV

[23] = target: T23, MAGE-B2 peptide, H8F peptide on HLA-A*02:01 (human); assay: killing
T23 peptide: GVYDGEEFSV

[24] = target: T24, MAGE-B2 peptide, H8G peptide on HLA-A*02:01 (human); assay: killing
T24 peptide: GVYDGEEGSV

[25] = target: T25, MAGE-B2 peptide, E7Q peptide on HLA-A*02:01 (human); assay: killing
T25 peptide: GVYDGEQHSV

[26] = target: T26, MAGE-B2 peptide, S9C peptide on HLA-A*02:01 (human); assay: killing
T26 peptide: GVYDGEEHCV

[27] = target: T27, MAGE-B2 peptide, H8T peptide on HLA-A*02:01 (human); assay: killing
T27 peptide: GVYDGEETSV

[28] = target: T28, MAGE-B2 peptide, S9W peptide on HLA-A*02:01 (human); assay: killing
T28 peptide: GVYDGEEHWV

[29] = target: T29, MAGE-B2 peptide, E7L peptide on HLA-A*02:01 (human); assay: killing
T29 peptide: GVYDGELHSV

[30] = target: T30, MAGE-B2 peptide, E7D peptide on HLA-A*02:01 (human); assay: killing
T30 peptide: GVYDGEDHSV

[31] = target: T31, MAGE-B2 peptide, V10I peptide on HLA-A*02:01 (human); assay: killing
T31 peptide: GVYDGEEHSI

[32] = target: T32, MAGE-B2 peptide, E6T peptide on HLA-A*02:01 (human); assay: killing
T32 peptide: GVYDGTEHSV

[33] = target: T33, MAGE-B2 peptide, H8W peptide on HLA-A*02:01 (human); assay: killing
T33 peptide: GVYDGEEWSV

[34] = target: T34, MAGE-B2 peptide, E7M peptide on HLA-A*02:01 (human); assay: killing
T34 peptide: GVYDGEMHSV

[35] = target: T35, MAGE-B2 peptide, S9Q peptide on HLA-A*02:01 (human); assay: killing
T35 peptide: GVYDGEEHQV

[36] = target: T36, MAGE-B2 peptide, S9N peptide on HLA-A*02:01 (human); assay: killing
T36 peptide: GVYDGEEHNV

[37] = target: T37, MAGE-B2 peptide, S9P peptide on HLA-A*02:01 (human); assay: killing
T37 peptide: GVYDGEEHPV

[38] = target: T38, MAGE-B2 peptide, E6V peptide on HLA-A*02:01 (human); assay: killing
T38 peptide: GVYDGVEHSV

[39] = target: T39, MAGE-B2 peptide, E7H peptide on HLA-A*02:01 (human); assay: killing
T39 peptide: GVYDGEHHSV

[40] = target: T40, MAGE-B2 peptide, V2I peptide on HLA-A*02:01 (human); assay: killing
T40 peptide: GIYDGEEHSV

[41] = target: T41, MAGE-B2 peptide on HLA-A*02:01 (human); assay: multimer staining
T41 peptide: GVYDGEEHSV

B1: TCR3 (TCR, V domains shown)
Valpha: AQKVTQAQTEISVVEKEDVTLDCVYETRDTTYYLFWYKQPPSGELVFLIRRNSFDEQNEISGRYSWNFQKSTSSFNFTITASQVVDSAVYFCALSVLRMDSSYKLIFGSGTRLLVRP
Vbeta: NAGVTQTPKFRVLKTGQSMTLLCAQDMNHEYMYWYRQDPGMGLRLIHYSVGEGTTAKGEVPDGYNVSRLKKQNFLLGLESAAPSQTSVYFCASSLQGAGQPQHFGDGTRLSIL
- binding result [1]: recognises
- binding result [2]: recognises
- binding result [3]: recognises
- binding result [4]: recognises
- binding result [5]: recognises
- binding result [6]: recognises
- binding result [7]: recognises
- binding result [8]: recognises
- binding result [9]: recognises
- binding result [10]: recognises
- binding result [11]: recognises
- binding result [12]: recognises
- binding result [13]: recognises
- binding result [14]: recognises
- binding result [15]: recognises
- binding result [16]: recognises
- binding result [17]: recognises
- binding result [18]: recognises
- binding result [19]: recognises
- binding result [20]: recognises
- binding result [21]: recognises
- binding result [22]: recognises
- binding result [23]: recognises
- binding result [24]: recognises
- binding result [25]: recognises
- binding result [26]: recognises
- binding result [27]: recognises
- binding result [28]: recognises
- binding result [29]: recognises
- binding result [30]: recognises
- binding result [31]: recognises
- binding result [32]: recognises
- binding result [33]: recognises
- binding result [34]: recognises
- binding result [35]: recognises
- binding result [36]: recognises
- binding result [37]: recognises
- binding result [38]: recognises
- binding result [39]: recognises
- binding result [40]: recognises
- binding result [41]: recognises

B2: TCR2 (TCR, V domains shown)
Valpha: QKEVEQNSGPLSVPEGAIASLNCTYSDRGSQSFFWYRQYSGKSPELIMSIYSNGDKEDGRFTAQLNKASQYVSLLIRDSQPSDSATYLCAVNIPFSNSGGYQKVTFGTGTKLQVIP
Vbeta: NAGVTQTPKFRVLKTGQSMTLLCAQDMNHEYMYWYRQDPGMGLRLIHYSVGEGTTAKGEVPDGYNVSRLKKQNFLLGLESAAPSQTSVYFCASRHPGQYNQPQHFGDGTRLSIL
- binding result [1]: recognises
- binding result [2]: recognises
- binding result [3]: recognises
- binding result [4]: no recognition
- binding result [5]: recognises
- binding result [6]: recognises
- binding result [7]: recognises
- binding result [8]: recognises
- binding result [10]: recognises
- binding result [11]: recognises
- binding result [12]: recognises
- binding result [13]: recognises
- binding result [14]: recognises
- binding result [15]: recognises
- binding result [16]: recognises
- binding result [17]: recognises
- binding result [18]: recognises
- binding result [19]: recognises
- binding result [20]: recognises
- binding result [21]: recognises
- binding result [22]: recognises
- binding result [23]: recognises
- binding result [24]: recognises
- binding result [25]: recognises
- binding result [26]: recognises
- binding result [27]: recognises
- binding result [28]: recognises
- binding result [29]: recognises
- binding result [30]: recognises
- binding result [31]: recognises
- binding result [32]: recognises
- binding result [33]: recognises
- binding result [34]: recognises
- binding result [35]: recognises
- binding result [36]: recognises
- binding result [37]: recognises
- binding result [38]: recognises
- binding result [39]: recognises
- binding result [40]: recognises
- binding result [41]: recognises

B3: TCR1 (TCR, V domains shown)
Valpha: KQEVTQIPAALSVPEGENLVLNCSFTDSAIYNLQWFRQDPGKGLTSLLLIQSSQREQTSGRLNASLDKSSGRSTLYIAASQPGDSATYLCAAMKTSYDKVIFGPGTSLSVIP
Vbeta: GEEVAQTPKHLVRGEGQKAKLYCAPIKGHSYVFWYQQVLKNEFKFLISFQNENVFDETGMPKERFSAKCLPNSPCSLEIQATKLEDSAVYFCASSQGQGGYGYTFGSGTRLTVV
- binding result [1]: recognises
- binding result [2]: recognises
- binding result [3]: recognises
- binding result [5]: recognises
- binding result [6]: recognises
- binding result [7]: recognises
- binding result [8]: recognises
- binding result [9]: recognises
- binding result [10]: recognises
- binding result [11]: recognises
- binding result [12]: recognises
- binding result [13]: recognises
- binding result [14]: recognises
- binding result [15]: recognises
- binding result [16]: recognises
- binding result [17]: recognises
- binding result [18]: recognises
- binding result [19]: recognises
- binding result [20]: recognises
- binding result [21]: recognises
- binding result [22]: recognises
- binding result [23]: recognises
- binding result [25]: recognises
- binding result [26]: recognises
- binding result [28]: recognises
- binding result [29]: recognises
- binding result [30]: recognises
- binding result [31]: recognises
- binding result [33]: recognises
- binding result [34]: recognises
- binding result [35]: recognises
- binding result [36]: recognises
- binding result [37]: recognises
- binding result [38]: recognises
- binding result [39]: recognises
- binding result [40]: recognises
- binding result [41]: recognises
